Measurements from PMC3338484.

Tested on: T1, Nc1nc2c(c(=O)[nH]1)N1CN(c3ccc(C(=O)NC(CCC(=O)O)C(=O)O)cc3)CC1CN2
T1 construct: hexa-histidine tag with TEV protease site (N, cleaved yes); made in house; host or cells: E. coli BL21 (DE3)
Assay: FolD enzyme assay (absorbance at 350 nm), IC50 determination
Assay type: biochemical, Pseudomonas aeruginosa
Details: other: 1 nM PaFolD, end-point assay; other substrate saturating; mean ± SD (n = 4); pH 7.9
Protocol: Enzyme activity was assayed by measuring the absorbance at 350 nm of the intermediate product in the reaction, N ^5,N ^10-methenyl-THF, following acidification of the reaction and consequent reconversion of the final product formyl-THF to the intermediate. Following optimization of the assay buffer and determination of the enzyme linearity, assays were carried out at room temperature in a 50 µL reaction volume containing 25 mM bicine, pH 7.9, 1 mM dithiothreitol, 0.05% CHAPS, 0.2 mg mL^−1 BSA, 1 nM recombinant FolD, […] NADP^+ and 35 µM N ^5,N ^10-methylene-THF. Michaelis constants for the two substrates (NADP^+ and N ^5,N ^10-methylene-THF) were determined in an end-point assay, using these buffer and enzyme conditions.
The HTS was performed with a compound collection of 79,029 diverse structures based around 4000 chemical scaffolds. All compounds were dissolved in 100% DMSO to a concentration of 3 mM. Single point inhibition assays were carried out at room temperature in clear, flat bottom, polystyrene, 384-well plates (Matrix). Each assay was performed in a 50 µL reaction volume as described above. […] The FolD assay was run at room temperature for 20 min and the signal was allowed to develop for 10 min before the absorbance of each well was read at 350 nm using an EnVision multilabel plate reader (PerkinElmer Life Sciences). […]

Substance: PaFolD (Pseudomonas aeruginosa PAO1)
- Km: 26 ± 4 µM
